The supplement of paper PMC7877785
± gives the uncertainty stated by the source.

Experiment: self-splicing fitness, log relative to wild type (ln ratio); higher = more splicing; Tetrahymena group I intron in knt gene, E. coli kanamycin selection, DiMSum; sequences stand for … in CUCUCU…GGAGGGAAAAGUUAUCAGGCAUGCACCUGGUAGCUAGUCUUUAAACCAAUAGAUUGCAUCGGUUUAAAAGGCAAGACCGUCAAAUUGCGGGAAAGGGGUCAACAGCCGUUCAGUACCAAGUCUCAGGGGAAACUUUGAGAUGGCCUUGCAAAGGGUAUGGUAAUAAGCUGACGGACAUGGUCCUAACCACGCAGCCAAGUCCUAAGUCAACAGAUCUUCUGUUGAUAUGGAUGCAGUUCACAGACUAAAUGUCGGUCGGGGAAGAUGUAUUCUUCUCAUAAGAUAUAGUCGGACCUCUCCUUAAUGGGAGCUAGCGGAUGAAGUGAUGCAACACUGGAGCCGCUGGGAACUAAUUUGUAUGCGAAAGUAUAUUGAUUAGUUUUGGAGUACUCGUGGUCG
Procedure, shortened: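 Pooled colonies went to amplicon sequencing on an Illumina HiSeq 2500 after six replicate transformations. The plates were LB agar with 100 μg/mL carbenicillin, 50 μM IPTG and 0.2% rhamnose, with or without 25 μg/mL kanamycin, incubated overnight at 37°C or 30°C. The E. coli BL21(DE3) library had all eight P1ex-region intron nucleotides randomised, the intron placed in the knt kanamycin-resistance gene on pET-22b(+). DiMSum fitness is the error-weighted combination of replicate fold changes, kanamycin against none, normalised to wild type.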

Sequence | self-splicing fitness (ln) (30 °C) | self-splicing fitness (ln) (37 °C)
UGUUAGCAAUAUUACGCAGU | -3.62 ± 0.27 | -2.48 ± 0.27
AUAAAGCAAUAUUACGCACA | 0.246 ± 0.1 | 0.202 ± 0.15
GGGCAGCAAUAUUACGAGAU | -3.14 ± 0.23 | -2.41 ± 0.32
CAAAAGCAAUAUUACGUGUA | -3.88 ± 0.16 | -2.25 ± 0.1
CAUUAGCAAUAUUACGCGGC | -3.98 ± 0.28 | -1.8 ± 0.28
CAUAAGCAAUAUUACGUUAU | -4.62 ± 0.3 | -2.58 ± 0.16
GCUAAGCAAUAUUACGACAA | -1.43 ± 0.18 | -2.5 ± 0.2
GACGAGCAAUAUUACGGUGG | -3.01 ± 0.16 | -2.77 ± 0.19
CCCUAGCAAUAUUACGUCCU | -4.12 ± 0.37 | -2.06 ± 0.28
AUUUAGCAAUAUUACGCCUU | -0.196 ± 0.092 | -0.0916 ± 0.12
GUCCAGCAAUAUUACGUCAU | -0.201 ± 0.077 | 0.269 ± 0.081
UUUCAGCAAUAUUACGGCAU | -1.87 ± 0.16 | -1.08 ± 0.19
UGUGAGCAAUAUUACGACCA | -1.27 ± 0.17 | -0.0518 ± 0.21
AAACAGCAAUAUUACGGGAA | -2.41 ± 0.17 | -1.24 ± 0.12
AAACAGCAAUAUUACGAAAG | -2.21 ± 0.13 | -1.57 ± 0.18
AUACAGCAAUAUUACGUCUG | -2.93 ± 0.083 | -1.4 ± 0.08
CCGCAGCAAUAUUACGCCAA | -3.73 ± 0.38 | -2.06 ± 0.34
ACUCAGCAAUAUUACGAGGG | -1.85 ± 0.08 | -1.41 ± 0.1
UCCCAGCAAUAUUACGGUGA | -1.57 ± 0.11 | -1.02 ± 0.11
UUGAAGCAAUAUUACGGGCC |  | -2.14 ± 0.42
UCUCAGCAAUAUUACGUGAA | -1.14 ± 0.082 | 0.314 ± 0.1
CGGUAGCAAUAUUACGACAA | -2 ± 0.21 | 0.305 ± 0.1
UCUCAGCAAUAUUACGAUUG | -3.43 ± 0.17 | -2.07 ± 0.17
CCGCAGCAAUAUUACGCACU | -2.9 ± 0.19 | -2.51 ± 0.24
UUAGAGCAAUAUUACGUUGG | -1.89 ± 0.1 | -1.59 ± 0.14
CAGGAGCAAUAUUACGUUCU | -4.15 ± 0.2 | -2.05 ± 0.14

Sequence | self-splicing fitness (ln) (30 °C) | self-splicing fitness (ln) (37 °C)
CCUAAGCAAUAUUACGGUUA | -3.71 ± 0.16 | -2.67 ± 0.14
CCAAAGCAAUAUUACGAAGC | -3.15 ± 0.36 | 
UGAAAGCAAUAUUACGUCUG | -0.102 ± 0.071 | 0.773 ± 0.09
CUGGAGCAAUAUUACGCGGA | -1.86 ± 0.24 | 
CCUUAGCAAUAUUACGUAUU | -4.45 ± 0.29 | -2.82 ± 0.22
UGUGAGCAAUAUUACGUGAC | -4.58 ± 0.32 | -3.08 ± 0.25
AAGUAGCAAUAUUACGAGUU | -1.86 ± 0.098 | -0.204 ± 0.096
AUAAAGCAAUAUUACGAACG | -0.309 ± 0.082 | -0.0989 ± 0.11
GCUUAGCAAUAUUACGAUAC | -1.65 ± 0.2 | 0.185 ± 0.23
AGACAGCAAUAUUACGAUUG | -2.94 ± 0.16 | -3.15 ± 0.28
UCGCAGCAAUAUUACGUCUG |  | -1.97 ± 0.18
UACUAGCAAUAUUACGACCU | -2.01 ± 0.13 | -0.83 ± 0.15
CAUGAGCAAUAUUACGGAGA | -3.91 ± 0.35 | -2.58 ± 0.48
UGGAAGCAAUAUUACGGUAG | -1.89 ± 0.12 | -1.82 ± 0.11
AGAAAGCAAUAUUACGUGUG | -2.13 ± 0.081 | -1.78 ± 0.095
GUUAAGCAAUAUUACGCGCU | -2 ± 0.16 | -1.63 ± 0.2
UAUGAGCAAUAUUACGGUGC | -3.01 ± 0.41 | -0.888 ± 0.3
GCGAAGCAAUAUUACGGUUC | -3.23 ± 0.2 | -1.24 ± 0.18
UCACAGCAAUAUUACGCUAU |  | -2.23 ± 0.21
ACCUAGCAAUAUUACGCGGA | -1.04 ± 0.085 | -0.0825 ± 0.086
CACCAGCAAUAUUACGCGCC | -2.68 ± 0.17 | -2.4 ± 0.2
UUCUAGCAAUAUUACGCGCG | -2.24 ± 0.32 | -1.05 ± 0.18
GAUGAGCAAUAUUACGACAG | -2.31 ± 0.47 | 
GGCGAGCAAUAUUACGACAC | -1.12 ± 0.19 | -0.253 ± 0.26
ACGAAGCAAUAUUACGCGUC | -3.76 ± 0.21 | -1.91 ± 0.19
UGGCAGCAAUAUUACGGCCU | -1.91 ± 0.18 | -1.57 ± 0.18

Sequence | self-splicing fitness (ln) (30 °C) | self-splicing fitness (ln) (37 °C)
CUAGAGCAAUAUUACGUUCC |  | 0.291 ± 0.28
AAGUAGCAAUAUUACGUGAC | -2.41 ± 0.19 | -1.85 ± 0.4
UGAUAGCAAUAUUACGUCUU | -1.22 ± 0.092 | -1.33 ± 0.09
UCUCAGCAAUAUUACGAUUA | -0.806 ± 0.11 | -0.539 ± 0.12
GAUUAGCAAUAUUACGUUCG | -1.94 ± 0.16 | -1.44 ± 0.13
UUCAAGCAAUAUUACGGCAC | -2.66 ± 0.4 | -1.11 ± 0.33
UAAGAGCAAUAUUACGGUCG | -2.81 ± 0.16 | -1.85 ± 0.15
CGUGAGCAAUAUUACGGACG | -2.08 ± 0.22 | -1.31 ± 0.38
GCCUAGCAAUAUUACGUAAU | -0.648 ± 0.071 | 0.224 ± 0.087
CAUCAGCAAUAUUACGCUCG | -0.495 ± 0.064 | -0.134 ± 0.079
ACCUAGCAAUAUUACGAUUU | -0.879 ± 0.064 | -0.0104 ± 0.079
CCCGAGCAAUAUUACGGUUG | -3.65 ± 0.15 | -1.81 ± 0.11
ACGCAGCAAUAUUACGUGAC | -3.45 ± 0.25 | -2.3 ± 0.21
CGAGAGCAAUAUUACGGAGC | -2.84 ± 0.35 | 
GCCGAGCAAUAUUACGUAGA | -2.74 ± 0.13 | -2.07 ± 0.14
AUCGAGCAAUAUUACGAUAG | -3.68 ± 0.22 | -3.23 ± 0.2
UUCGAGCAAUAUUACGUAUA | -2.7 ± 0.33 | -2.78 ± 0.41
UGAGAGCAAUAUUACGUAGC |  | -2.96 ± 0.4
ACGAAGCAAUAUUACGUCUC | -3.62 ± 0.12 | -1.55 ± 0.087
UCUAAGCAAUAUUACGCCGC | -2.69 ± 0.29 | 
UCGUAGCAAUAUUACGCUUU | -2.74 ± 0.14 | -2.4 ± 0.15
UCGAAGCAAUAUUACGGCAA | -1.81 ± 0.19 | -1.72 ± 0.17
UAGUAGCAAUAUUACGACCC | -0.998 ± 0.35 | -1.28 ± 0.43
AUGCAGCAAUAUUACGGAGU | -1.78 ± 0.093 | -1.44 ± 0.11
AACUAGCAAUAUUACGAUUG | -2.97 ± 0.12 | -1.23 ± 0.12
CCCAAGCAAUAUUACGUGCU | -2.08 ± 0.11 | -2.6 ± 0.2
